According to paper PMC7375816:

Biological target: Yeast Hsp90 wild-type FRET hetero-dimer (donor 61C + biotinylated acceptor 385C) (yeast | D. melanogaster)

increase in ATPase activity of Hsp90 in the presence of 3 µM Aha1, normalised to the activity without Aha1: 17 fold
B1: cochaperone Aha1 (natural protein)
chain: MVVNNPNNWHWVDKNCIGWAKEYFKQKLVGVEAGSVKDKKYAKIKSVSSIEGDCEVNQRKGKVISLFDLKITVLIEGHVDSKDGSALPFEGSINVPEVAFDSEASSYQFDISIFKETSELSEAKPLIRSELLPKLRQIFQQFGKDLLATHGNDIQVPESQVKSNYTRGNQKSSFTEIKDSASKPKKNALPSSTSTSAPVSSTNKVPQNGSGNSTSIYLEPTFNVPSSELYETFLDKQRILAWTRSAQFFNSGPKLETKEKFELFGGNVISELVSCEKDKKLVFHWKLKDWSAPFNSTIEMTFHESQEFHETKLQVKWTGIPVGEEDRVRANFEEYYVRSIKLTFGFGAVL
